Where two headings read alike, the source gives them in different places.
Assays:
[1] = target: Human Carboxylesterase 1 (hCES1), wild type, glycosylated (human) (UniProt P23141); experiment: AUC; sedimentation velocity, 20°C, 2, 1.0 and 0.5 mg/mL protein in 20 mM TrisHCl, pH 7.5, 200 mM NaCl, 40,000 rpm; c(S) analysis with SEDFIT
[2] = target: Human Carboxylesterase 1 (hCES1), wild type, glycosylated (human) (UniProt P23141); experiment: SEC; HiLoad 16/60 Superdex 200, 200 mM NaCl, 20 mM Tris-HCl, pH 7.5; molecular weight estimated from globular protein standards
[3] = target: hCES1 S221A (catalytically inactive mutant) (human) (UniProt P23141); experiment: AUC; sedimentation velocity, 20°C, 2, 1.0 and 0.5 mg/mL protein in 20 mM TrisHCl, pH 7.5, 200 mM NaCl, 40,000 rpm; c(S) analysis with SEDFIT
[4] = target: hCES1 S221A (catalytically inactive mutant) (human) (UniProt P23141); experiment: SEC; HiLoad 16/60 Superdex 200, 200 mM NaCl, 20 mM Tris-HCl, pH 7.5; molecular weight estimated from globular protein standards
[5] = target: hCES1 N79Q (aglycosylated hCES1) (human) (UniProt P23141); experiment: AUC; sedimentation velocity, 20°C, 2, 1.0 and 0.5 mg/mL protein in 20 mM TrisHCl, pH 7.5, 200 mM NaCl, 40,000 rpm; c(S) analysis with SEDFIT
[6] = target: hCES1 N79Q (aglycosylated hCES1) (human) (UniProt P23141); experiment: SEC; HiLoad 16/60 Superdex 200, 200 mM NaCl, 20 mM Tris-HCl, pH 7.5; molecular weight estimated from globular protein standards
[7] = 4-NPA hydrolysis, A405, specific activity; details: glycan lost; control: glycosylated hCES1
[8] = 4-NPA kinetics, allosteric sigmoidal fit; details: glycan lost; control: glycosylated hCES1
[9] = sedimentation velocity analytical ultracentrifugation; details: glycan lost; control: glycosylated hCES1
[10] = crystal structure superposition, Cα rmsd; details: glycan lost; control: glycosylated hCES1 structure (5a7f)
[11] = size exclusion chromatography; details: glycan lost; control: glycosylated hCES1
[12] = N-glycosylation at N79

Molecule “Human Carboxylesterase 1 (hCES1), wild type, glycosylated (from UniProt P23141 18-567) (enzyme)” has a stoichiometry N [1] of 3 and a stoichiometry N [2] of 3.

Work on “hCES1 S221A (catalytically inactive mutant) (from UniProt P23141 18-567) (enzyme)” yielded a stoichiometry N [3] of 3 and a stoichiometry N [4] of 3.

“hCES1 N79Q (aglycosylated hCES1) (from UniProt P23141 18-567) (enzyme)” showed a stoichiometry N [5] of 3 and a stoichiometry N [6] of 3.

B1: Human Carboxylesterase 1 (hCES1): N79Q (protein)
parent chain: MWLRAFILATLSASAAWGHPSSPPVVDTVHGKVLGKFVSLEGFAQPVAIFLGIPFAKPPLGPLRFTPPQPAEPWSFVKNATSYPPMCTQDPKAGQLLSELFTNRKENIPLKLSEDCLYLNIYTPADLTKKNRLPVMVWIHGGGLMVGAASTYDGLALAAHENVVVVTIQYRLGIWGFFSTGDEHSRGNWGHLDQVAALRWVQDNIASFGGNPGSVTIFGESAGGESVSVLVLSPLAKNLFHRAISESGVALTSVLVKKGDVKPLAEQIAITAGCKTTTSAVMVHCLRQKTEEELLETTLKMKFLSLDLQGDPRESQPLLGTVIDGMLLLKTPEELQAERNFHTVPYMVGINKQEFGWLIPMQLMSYPLSEGQLDQKTAMSLLWKSYPLVCIAKELIPEATEKYLGGTDDTVKKKDLFLDLIADVMFGVPSVIVARNHRDAGAPTYMYEFQYRPSFSSDMKPKTVIGDHGDELFSVFGAPFLKEGASEEEIRLSKMVMKFWANFARNGNPNGEGLPHWPEYNQKEGYLQIGANTQAAQKLKDKEVAFWTNLFAKKAVEKPPQTEHIEL
With B1 the “enzymatic_activity, other: specific activity” value [7] was “no change, 98 vs 73, The purified aglycosylated enzyme was found to be more active than glycosylated hCES1”, the “enzymatic_activity, other: Hill coefficient” value [8] was “no change, 1.57 +/- 0.4 vs 1.46 +/- 0.26” and the “enzymatic_activity, other: Khalf” value [8] was “no change, 1090 +/- 343.3 vs 1123 +/- 280.2”. For the same molecule, the “enzymatic_activity, other: Vmax” value [8] was “no change, 10.92 +/- 2.01 vs 9.25 +/- 1.30”, the oligomerisation [9] was “no change” and the structure or conformation, other: rmsd to control [10] was 0.47 Å. The oligomerisation [11] was “no change”, the enzymatic_activity [12] was “no change, specific activity 73 (hCES1) vs 98 (N79Q) µmol min-1 μg-1; Vmax 9.25 +/- 1.30 vs 10.92 +/- 2.01 μMmin-1; h 1.46 vs 1.57” and the expression_or_secretion [12] was “no change, 39 mg/L (N79Q, transient HEK293T) vs 64 mg/L (hCES1, stable HEK293 Gnt1-/-)”. For the same molecule, the oligomerisation [12] was “no change, trimer, apparent molecular weight 152 kDa” and the structure_or_conformation [12] was “no change, rmsd 0.47 Å (vs hCES1) and 0.3 Å (vs S221A) for all Cα atoms”.

Source: paper PMC4676782
